Test results from patent publication US20260217833A1 (APTEVO RESEARCH AND DEVELOPMENT, published 2026).
Substitutions are numbered along the chain they refer to. Where two headings read alike, the source gives them in different places.

Legend:
human CD40 full-length [1] = target: T1, human CD40 full-length (human, UniProt P25942 21-277); experiment: on-cell binding
T1 construct: Also used for CD40 of Daudi cells, of CD40-expressing HEK293 cells and of the BPS CD40/NFkB HEK293 reporter cells where the row says so; also called CD4001012; CHOK1SV/CD40

human CD40 full-length [2] = target: T1, human CD40 full-length; experiment: flow cytometry, CHOK1SV/human CD40 cells
Human PD-L1 full-length [3] = target: T2, Human PD-L1 full-length (human, UniProt Q9NZQ7 19-290); experiment: flow cytometry, CHOK1SV/human PD-L1 cells
T2 construct: also called PDL01021; CHOK1SV/huPDL1

Human PD-L1 full-length [4] = target: T2, Human PD-L1 full-length; experiment: flow cytometry, CHOK1SV/human PD-L1 cells; remark: listed apart in the source
Cynomolgus CHOK1SV/CD40 [5] = target: T3, Cynomolgus CHOK1SV/CD40; experiment: flow cytometry, CHOK1SV/cynomolgus CD40 cells
T3 construct: also called Cyno CD40 full-length; CD4001013
T3 receptor chain: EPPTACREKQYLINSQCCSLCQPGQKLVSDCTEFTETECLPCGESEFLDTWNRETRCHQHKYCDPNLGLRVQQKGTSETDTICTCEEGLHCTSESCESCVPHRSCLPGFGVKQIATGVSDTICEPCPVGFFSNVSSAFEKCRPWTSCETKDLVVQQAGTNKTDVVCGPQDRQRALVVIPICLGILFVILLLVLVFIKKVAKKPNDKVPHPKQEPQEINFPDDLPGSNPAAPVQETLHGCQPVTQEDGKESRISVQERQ

[6] = target: T4, human neonatal Fc receptor (FcRn, complexed with beta-2-macroglobulin) (human, UniProt P55899 24-297; P61769 21-119); experiment: SPR, FcRn/b2m immobilized, bispecific injected, pH 6.0, two-state reaction fit
T4 construct: also called Human FcRn/b2m

human CD40 full-length [7] = target: T1, human CD40 full-length; experiment: flow cytometry, CHOK1SV/human CD40 cells; remark: listed apart in the source
human CD40 ECD- HAC tag = target: T5, human CD40 ECD- HAC tag (human); experiment: SPR (Biacore T200), bispecific captured on the chip, monovalent CD40 ECD injected
T5 construct: also called CD4001006; recombinant monomeric human CD40 ectodomain (ECD)

human CD40 full-length [8] = target: T1, human CD40 full-length; experiment: flow cytometry, Daudi cells (endogenous CD40)
Cynomolgus CHOK1SV/CD40 [9] = target: T3, Cynomolgus CHOK1SV/CD40; experiment: flow cytometry, CHOK1SV/cynomolgus CD40 cells
human CD40 full-length [10] = target: T1, human CD40 full-length; experiment: binding to cells expressing full length human- or cyno-CD40, unpurified small-scale material

T2 sequence (Q9NZQ7 19-290): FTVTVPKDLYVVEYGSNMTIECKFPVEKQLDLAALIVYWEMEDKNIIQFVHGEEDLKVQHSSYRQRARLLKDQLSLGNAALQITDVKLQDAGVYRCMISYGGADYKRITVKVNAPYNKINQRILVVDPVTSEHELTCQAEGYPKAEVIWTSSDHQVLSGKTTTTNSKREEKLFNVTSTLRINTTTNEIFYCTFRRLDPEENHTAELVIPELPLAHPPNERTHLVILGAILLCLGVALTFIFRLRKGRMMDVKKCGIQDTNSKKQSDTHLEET
T4 sequence (P55899 24-297 limits assumed, chain 1 of 2): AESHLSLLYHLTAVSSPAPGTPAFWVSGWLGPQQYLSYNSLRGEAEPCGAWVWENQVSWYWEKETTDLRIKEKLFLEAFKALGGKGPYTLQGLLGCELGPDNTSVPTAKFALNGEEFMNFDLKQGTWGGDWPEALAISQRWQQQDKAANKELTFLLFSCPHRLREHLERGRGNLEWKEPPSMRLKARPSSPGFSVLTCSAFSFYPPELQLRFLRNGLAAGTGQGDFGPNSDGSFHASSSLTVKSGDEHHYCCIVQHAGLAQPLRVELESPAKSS
T4 sequence (P61769 21-119 limits assumed, chain 2 of 2): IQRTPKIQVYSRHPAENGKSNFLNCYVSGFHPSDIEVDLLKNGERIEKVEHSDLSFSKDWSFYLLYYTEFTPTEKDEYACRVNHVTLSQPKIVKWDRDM

B1: CD4001152 (Fc fusion)
scFv: QIVMTQSPDSLALSLGERATMNCKSSQSLLFSVNQKNYLAWYQQKPGQAPRLLIYWASTRESGVPDRFSGSGSGTDFTLTISRLEPEDVATYYCQHYYSYPWTFGAGTKLEIKGGGGSGGGGSGGGGSGGGGSQVQLVQSGAEVKKPGASVKVSCKASGYTFSTSWIEWVRQAPGQGLEWIGEILPGSGSTNYAQKFQGRATFTADTSTSTAYMELSSLRSEDTAVYYCARGDDGSYVRWYFDVWGQGTTVTVSS
notes: Humanized 1D5 scFv variant, as told of in Fc-scFv format; not shown: the human Fc and any Fc-scFv linker; neither the Fc entry nor the scFv position (N- or C-terminal) is fixed for this construct
B1: no binding (human CD40 full-length [1]).

B2: CD4001103 (Fc fusion)
scFv: B1 scFv with D9G, S10T, A12S, L15P, N22T, V89A, Q136K, V170I
notes: As m82; not shown: the human Fc (hinge-CH2-CH3) of the scFv-hFc format
B2: binds (human CD40 full-length [2]).

B3: CD4001163 (Fc fusion)
scFv: B1 scFv with L13V, M21I, L110V, I167M, I181M, A201V, F203M, A205R, A212V
notes: As m85; not shown: Fc (hinge-CH2-CH3) and any Fc-scFv linker of the tested fusion
B3: no binding (human CD40 full-length [1]).

B4: PC401003 (bispecific antibody)
chain: DIQMTQSPSSLSASVGDRVTITCRASQDINKFLSWYQQKPGKAPKLLIHYTSSLQSGVPSRFSGSGSGTDFTLTISSLQPEDFATYYCLQYDNLYTFGQGTKLEIKGGGGSGGGGSGGGGSGGGGSEVQLVESGGGLVQPGGSLRLSCAASGFTFSDYGMAWVRQAPGKGLEWVSFITSLAYIIYYADSVKGRFTISRDNAKNSLYLQMNSLRAEDTAVYYCARNYGSSPYYFDYWGQGTLVTVSSEPKSSDKTHTCPPCPAPPAAAPSVFLFPPKPKDTLMISRTPEVTCVVVDVSHEDPEVKFNWYVDGVEVHNAKTKPREEQYNSTYRVVSVLTVLHQDWLNGKEYKCAVSNKALPAPIEKTISKAKGQPREPQVYTLPPSRDELTKNQVSLTCLVKGFYPSDIAVEWESNGQPENNYKTTPPVLDSDGSFFLYSKLTVDKSRWQQGNVFSCSVMHEALHNHYTQKSLSLSPGGGGSPSDIQMTQSPSSVSASVGDRVTITCRASQSLLFSVNQKNYLAWYQQKPGKAPKLLIYWASSLQSGVPSRFSGSGSGTDFTLTISSLQPEDFATYYCQHYYSYPWTFGQGTKVEIKGGGGSGGGGSGGGGSGGGGSQVQLVQSGAEVKKPGSSVKVSCKASGYTFSTSWIEWIRQAPGQGLEWMGSILPGSGSTNYAQKFQGRVTITADTSTSTAYMELSSLRSEDTAVYYCARGDDGSYVRWYFDHWGQGTLVTVSS
notes: also called Parent; DDG (Original)
In the case of B4, the “EC50 (read off the curve)” value (Human PD-L1 full-length [3]) is reported as roughly 3 nM, the “EC50 (read off the curve)” value (Human PD-L1 full-length [4]) is reported as roughly 3 nM and the binding result (Cynomolgus CHOK1SV/CD40 [5]) is reported as “binds”. It also gave a Kd [6] of 121 nM.

B5: PC401120 (bispecific antibody)
chain: B4 chain with Q588C, G659C
notes: also called L-Gln100Cys + H-Gly44Cys
With B5 the binding result (human CD40 full-length [7]) was “binds”, the “EC50 (read off the curve)” value (Human PD-L1 full-length [3]) was roughly 3 nM and the binding result (Cynomolgus CHOK1SV/CD40 [5]) was “binds”. It also gave a Kd [6] of 146 nM, a Kd (human CD40 ECD- HAC tag) of 74 nM and a koff (human CD40 ECD- HAC tag) of 0.00054 s⁻¹. The kon (human CD40 ECD- HAC tag) was 7200 M⁻¹ s⁻¹.

B6: PC401122 (bispecific antibody)
chain: B4 chain with V720N
notes: also called H-Val100aAsn
B6 was tested, and the binding result (human CD40 full-length [7]) was “binds”, the “EC50 (read off the curve)” value (Human PD-L1 full-length [3]) was roughly 3 nM and the binding result (Cynomolgus CHOK1SV/CD40 [5]) was “binds”. The Kd [6] was 134 nM, the Kd (human CD40 ECD- HAC tag) was 69 nM and the koff (human CD40 ECD- HAC tag) was 0.0006 s⁻¹. The kon (human CD40 ECD- HAC tag) was 8700 M⁻¹ s⁻¹.

B7: PC401144 (bispecific antibody)
chain: B4 chain with L512T, Q588C, G659C, A676N, V720N
B7: binds (Human PD-L1 full-length [4]); binds (human CD40 full-length [8]); binds (Cynomolgus CHOK1SV/CD40 [9]). It also gave a Kd (human CD40 ECD- HAC tag) of 81 nM, a koff (human CD40 ECD- HAC tag) of 0.00059 s⁻¹ and a kon (human CD40 ECD- HAC tag) of 7300 M⁻¹ s⁻¹.

B8: PC401145 (bispecific antibody)
chain: B4 chain with Q588C, G659C, A676N, V720N
B8: binds (Human PD-L1 full-length [4]); binds (human CD40 full-length [8]); binds (Cynomolgus CHOK1SV/CD40 [9]). The Kd (human CD40 ECD- HAC tag) was 81 nM, the koff (human CD40 ECD- HAC tag) was 0.00061 s⁻¹ and the kon (human CD40 ECD- HAC tag) was 7600 M⁻¹ s⁻¹.

B9: CD4001090 (Fc fusion)
chain: EVVMTQSPDFQSVTPKEKVTITCRSSQSLVHYNGYTYLHWYQQKPDQSPKLLIYKVSNRFSGVPSRFSGSGSGTDFTLTINSLEAEDAAAYFCSQTTHVPLTFGPGTKVDIKGGGGSGGGGSGGGGSGGGGSEVQLVESGGGVVQPGRSLRLSCAASGFTFSSYAMSWVRQAPGKGLEWVASISSAGTYIYYADSVKGRFTISRDNSKNTLYLQMNGLRAEDTAVYYCARHGNGYDPLWYFDVWGQGTLVTVSS
notes: As m65; not shown: wildtype IgG1 Fc region
B9: binds (human CD40 full-length [10]).

B10: CD4001088 (Fc fusion)
chain: B9 chain with V143L, K197Q, S207G, T210S, G217S, V225L, L249M
notes: as for B9
B10: binds (human CD40 full-length [10]).

B11: CD4001099 (Fc fusion)
chain: B9 chain with V143L, V144E, R148G, G217S, L249T
notes: as for B9
B11: binds (human CD40 full-length [10]).
